Laboratory results from the supplement of paper PMC10724198.
± gives the standard deviation of the averaged measurements.

Each sequence was assayed on Saccharomyces cerevisiae (assay: protein stability index of tFT-peptide fusion (C-terminal peptide) (PSI (0-1 scale)); higher = more stable (slower turnover)). Conditions: genetic background: wild type; temperature: 30 C.
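Note: PSI is a weighted mean of sequencing reads over stability bins, variants kept only with over 10 reads, mCherry proximal and sfGFP distal, peptide attached via GGGS linker.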

Sequence	protein stability index
PHLESVRYGLFS	0.709 ± 0.02
PHLFDPLVPASF	0.682 ± 0.048
PHLHTPDDARPL	0.698 ± 0.092
PHLPYCSPSFPV	0.642 ± 0.059
PHLTPRRQHRLR	0.667 ± 0.049
PHPLLPGRSSPP	0.677 ± 0.061
PHPLPHASPAPC	0.6677 ± 0.0019
PHPLPPPTPSVP	0.677 ± 0.018
PHPPHLRPLCPR	0.719 ± 0.029
PHPPHRLPYPRL	0.808 ± 0.054
PHPPPERSTNLC	0.694 ± 0.036
PHPPPHPLFSRF	0.758 ± 0.02
PHPPPPSPPLPT	0.709 ± 0.041
PHPPSDLLPYRP	0.691 ± 0.022
PHPRPPLPLSLP	0.697 ± 0.013
PHRACSSRPLGP	0.718 ± 0.049
PHRPPPHHSLPP	0.6976 ± 0.0013
PHRPTALALHWF	0.66 ± 0.0067
PHTHHAPNTRNQ	0.6797 ± 0.0036
PIALPLPPPTPS	0.757 ± 0.08
PIERISNSGKRP	0.6928 ± 0.0017
PIGVFFVSGCVG	0.606 ± 0.014
PIPSPYYPPTFC	0.73 ± 0.11
PISGFLRPPPPF	0.663 ± 0.012
PISPLPPPRFLP	0.677 ± 0.04
PKKNIKSKNIIL	0.714 ± 0.034

Sequence	protein stability index
PKSRSVTTSIPG	0.691 ± 0.042
PKVDLSVVRSGY	0.638 ± 0.016
PLAPLPMSPHLA	0.572 ± 0.016
PLAPPLRPLVSP	0.66 ± 0.076
PLASLPALHFSL	0.678 ± 0.025
PLASPRIYAQHL	0.697 ± 0.016
PLAWSAPCRPHT	0.73 ± 0.029
PLCAFLFLSSPP	0.757 ± 0.031
PLFPPPPLRSWP	0.766 ± 0.089
PLGCGLTRCVAT	0.599 ± 0.0067
PLGQGRRRPPDA	0.732 ± 0.1
PLHDGRFANDSF	0.674 ± 0.043
PLHPPCLPPSRL	0.814 ± 0.043
PLHPPSLPPPPT	0.732 ± 0.032
PLHPSFPPPPAP	0.5147 ± 0.0044
PLHRARAPHSYP	0.7167 ± 0.006
PLKPPTPDPPHR	0.666 ± 0.027
PLLLSPPPLYTF	0.632 ± 0.028
PLLPATFLPATP	0.74 ± 0.021
PLLPPLPATSHT	0.786 ± 0.14
PLLPPLPPRPPP	0.633 ± 0.03
PLLPPPPPPPPT	0.718 ± 0.025
PLLPPSSVPTPS	0.784 ± 0.1
PLLSPPSPLPPF	0.724 ± 0.022
PLLSPPSPPPPT	0.713 ± 0.017
PLPAAPPILFSL	0.731 ± 0.038

Sequence	protein stability index
PLPAPPPPTLPD	0.715 ± 0.065
PLPARSPPPTSV	0.652 ± 0.026
PLPFPLLPPPPH	0.705 ± 0.013
PLPFPPPLPPPT	0.681 ± 0.043
PLPFPSSPPPPP	0.6723 ± 0.0018
PLPFPSTPPPPD	0.691 ± 0.031
PLPFRSSPLLVL	0.614 ± 0.05
PLPGLLHCPTSP	0.717 ± 0.12
PLPLAPHPDYSL	0.687 ± 0.052
PLPLFGPRLSPP	0.875 ± 0.065
PLPLHPSALPSL	0.676 ± 0.05
PLPLPLLPPPLP	0.764 ± 0.11
PLPLPPPSLSPL	0.73279 ± 8.7e-05
PLPLPVSPRPPP	0.6807 ± 0.0063
PLPLPYCQASPV	0.658 ± 0.008
PLPLSPPLLPAP	0.6 ± 0.0082
PLPPCCLPPSAF	0.6857 ± 0.0061
PLPPCPPTPCPS	0.648 ± 0.013
PLPPHVPPSLPP	0.679 ± 0.0083
PLPPPDPPAPSL	0.716 ± 0.0085
PLPPPGPLPSPP	0.736 ± 0.043
PLPPPLPPTLPL	0.72 ± 0.018
PLPPPPALLFPP	0.733 ± 0.054
PLPPPPPALPLP	0.683 ± 0.037
PLPPPPPDILTP	0.743 ± 0.013
PLPPPPPTSLPP	0.705 ± 0.043

Sequence	protein stability index
PLPPRPHPLLSP	0.6526 ± 0.0026
PLPPSPPPPPSP	0.677 ± 0.019
PLPQNIPFPLPL	0.735 ± 0.019
PLPRLSYRPPTL	0.663 ± 0.028
PLPRPLPPRVPF	0.712 ± 0.013
PLPRPPSPLPAL	0.689 ± 0.039
PLPSPPVPPPPP	0.6796 ± 0.0043
PLPTGTQPTRHR	0.669 ± 0.0079
PLPTHISPPLPS	0.6893 ± 0.006
PLRLPPPRSPPL	0.689 ± 0.032
PLRPRGAAPPHP	0.6842 ± 0.0026
PLSAPNHVPGRT	0.702 ± 0.045
PLSFPTFVPLPI	0.663 ± 0.043
PLSFSPSLRYPP	0.659 ± 0.023
PLSGFSSPSFFP	0.693 ± 0.025
PLSPLPPPPPPP	0.649 ± 0.04
PLSPPPPSPPFA	0.743 ± 0.013
PLSPPPPSPPRP	0.645 ± 0.025
PLSPRHVSPPLL	0.778 ± 0.045
PLSRPFSPSLPL	0.66 ± 0.028
PLSRYPSPSLPL	0.693 ± 0.0076
PLVFSTSLCVSE	0.666 ± 0.0093
PLVLPPSPASPF	0.694 ± 0.042
PLVLSHRLPLPP	0.703 ± 0.067
PLVPLAFWSPLV	0.686 ± 0.035
PLVPPESPRSQV	0.6564 ± 0.0034

Sequence	protein stability index
PLVSLLPHPRAA	0.495 ± 0.094
PLWALVRDVRVG	0.652 ± 0.033
PLYLSFSFCPSF	0.611 ± 0.013
PMHVLTKLCDGV	0.689 ± 0.083
PMLSLFRYNVVR	0.697 ± 0.021
PMPGRSEREYQV	0.711 ± 0.087
PNLARPSTPTTS	0.72 ± 0.023
PNLKLSPKWAKP	0.67 ± 0.063
PNLRPPSPPSLL	0.714 ± 0.049
PNVPVPTPPPGI	0.729 ± 0.061
PPAALPRSTPPP	0.704 ± 0.063
PPAFLSPPLDPL	0.6054 ± 0.0032
PPAPGPPHPPAL	0.651 ± 0.013
PPAPPHPPPFPP	0.589 ± 0.052
PPAPPLSSPPPS	0.662 ± 0.053
PPAPPPPLPPPP	0.64 ± 0.017
PPAPPPPPLPSY	0.714 ± 0.052
PPAPRPSTRHTP	0.74 ± 0.013
PPAPSPLPPPPF	0.756 ± 0.03
PPAPSPRPPPPP	0.708 ± 0.067
PPAPTAPPLSSH	0.681 ± 0.03
PPARRPVPPLSC	0.7187 ± 0.0058
PPASPPAPPTFG	0.645 ± 0.021
PPATPTNPPVSP	0.687 ± 0.027
PPATTPICSTPS	0.681 ± 0.017
PPAVPSTPLSPP	0.685 ± 0.032

Sequence	protein stability index
PPCTVHPLPRLP	0.727 ± 0.02
PPDLSWPPAPLP	0.824 ± 0.021
PPDPRLPRHDRP	0.755 ± 0.018
PPEPRPLPDAPP	0.5977 ± 0.0052
PPFDSAHPTPAP	0.739 ± 0.019
PPFLLPCFPCFS	0.494 ± 0.07
PPFLPPSPPAPP	0.691 ± 0.031
PPFPPHPPPSSA	0.6873 ± 0.0052
PPFPPPPPPSPS	0.751 ± 0.07
PPFPPPSPPHAL	0.751 ± 0.1
PPFPPRPLPPIP	0.693 ± 0.017
PPFSLVTGLPCP	0.71 ± 0.048
PPFVPFLLIFPP	0.611 ± 0.042
PPGGSRTEGRRT	0.688 ± 0.049
PPGPPPPLPISP	0.7244 ± 0.0044
PPGPRPTPPPPI	0.641 ± 0.045
PPGPTSSPTKTH	0.729 ± 0.056
PPGSPGPRTPPP	0.708 ± 0.024
PPHAAPPHICWQ	0.727 ± 0.049
PPHCSSPTPARH	0.694 ± 0.028
PPHHPPPASRSQ	0.653 ± 0.068
PPHLPPPPPVPA	0.5751 ± 0.0052
PPHPKPPPAPPP	0.527 ± 0.041
PPHPLPPPSPPF	0.682 ± 0.034
PPHPPRPSVSSS	0.687 ± 0.0097
PPHPRTPPATPP	0.601 ± 0.12

Sequence	protein stability index
PPHPSPPHPSSA	0.752 ± 0.01
PPHSIPSPSHPR	0.714 ± 0.052
PPHSPETVPARP	0.688 ± 0.046
PPHTALLPPAPA	0.583 ± 0.019
PPHTRTACHRAP	0.7251 ± 0.0034
PPLAAFLPFLAL	0.694 ± 0.0011
PPLAPPHPCPPP	0.698 ± 0.018
PPLASFPPPPPL	0.667 ± 0.064
PPLASPDPPLPL	0.66 ± 0.083
PPLGPARNYPSL	0.673 ± 0.018
PPLLHPLPPPLP	0.659 ± 0.014
PPLLPPPLTPPD	0.628 ± 0.051
PPLLPPTPPLSA	0.625 ± 0.018
PPLLPRPPPLSP	0.6677 ± 0.0037
PPLPCATLPSHS	0.706 ± 0.013
PPLPFSSSRFPS	0.666 ± 0.02
PPLPLPTLPCRP	0.644 ± 0.035
PPLPLTAPHLCH	0.705 ± 0.03
PPLPPPPHPPFP	0.683 ± 0.07
PPLPPPPPPVPA	0.681 ± 0.036
PPLPPRSPSAPL	0.695 ± 0.034
PPLPPSSMPPSH	0.685 ± 0.035
PPLPPVPSPPPP	0.654 ± 0.025
PPLPSLLGLLFP	0.6773 ± 0.0044
PPLPSSPPSSPL	0.68 ± 0.013
PPLRPPPPLPVP	0.663 ± 0.054

Sequence	protein stability index
PPLSCFPLSTRL	0.683 ± 0.002
PPLSFDTSRVAP	0.677 ± 0.049
PPLSHPRPILAP	0.5683 ± 0.0025
PPLSPLAPPSHP	0.727 ± 0.069
PPLSPRLLWSPV	0.711 ± 0.0044
PPLVPPPLRASP	0.684 ± 0.037
PPLYFFSPMAFF	0.783 ± 0.032
PPMSYYLFPCSR	0.699 ± 0.061
PPPAFRLPLPPP	0.727 ± 0.072
PPPALTHLLPLP	0.678 ± 0.058
PPPAPLSPLSPR	0.6777 ± 0.0016
PPPAPPSPPPPP	0.65 ± 0.054
PPPAPPVRPDRS	0.686 ± 0.048
PPPASPLPPASP	0.667 ± 0.031
PPPASPSPSMVF	0.693 ± 0.024
PPPASRTPSNLP	0.732 ± 0.046
PPPDPPLSPPPP	0.676 ± 0.087
PPPDYPPTPAPS	0.715 ± 0.054
PPPEVDLRPCHC	0.688 ± 0.055
PPPFCPCNRLNG	0.702 ± 0.0078
